Source: patent publication US20210214444A1 (TAYU HUAXIA BIOTECH MEDICAL GROUP, published 2021)

Target: hPD-L1 (Fortebio Octet assay of Example 3) (human, UniProt Q9NZQ7 19-238, limits assumed)
Experiment: BLI, Fortebio Octet; format not stated

Sequence of hPD-L1 (Fortebio Octet assay of Example 3) (Q9NZQ7 19-238 limits assumed): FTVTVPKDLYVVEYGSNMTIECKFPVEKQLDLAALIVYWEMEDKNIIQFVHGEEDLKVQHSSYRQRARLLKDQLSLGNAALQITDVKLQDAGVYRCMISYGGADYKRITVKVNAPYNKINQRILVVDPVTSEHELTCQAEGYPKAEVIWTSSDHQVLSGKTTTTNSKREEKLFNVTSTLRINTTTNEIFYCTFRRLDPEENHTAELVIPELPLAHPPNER

- koff: 2.72e-05 s⁻¹
B1: humanized anti-hPD-L1 antibody variant 2 (antibody, V domains shown)
VH: QVQLVQSGAEVKKPGASVKVSCKASGFNIKDTYMYWVRQAPGQGLEWMGRIDPANDNTKYAQKFQGRVTITADTSTSTAYMELSSLRSEDTAVYYCARAKNLLNYFDYWGQGTLVTVSS
VL: DIQMTQSPSSLSASVGDRVTITCRASQEISGYLSWLQQKPGKAPKRLIYATSTLQSGVPSRFSGSRSGTDYTLTISSLQPEDFATYYCLQYAIYPLTFGQGTKLEIKR
notes: Human IgG1; also called Humanized VH 1 + Humanized VL2; anti-PD-L1 IgG1
